Laboratory results published in article doi:10.1101/2023.12.18.572097.

Tests used:
[1] = molecular target: E. coli type I Zorya ZorA, wild type (EcZorA) (E. coli); assay: cryo-EM structure
[2] = molecular target: E. coli type I Zorya ZorB, wild type (EcZorB) (E. coli); assay: cryo-EM structure

Substance | stoichiometry N [1] | stoichiometry N [2]
E. coli type I Zorya ZorA, wild type (EcZorA) (natural protein) | 5 | 
E. coli type I Zorya ZorB, wild type (EcZorB) (natural protein) |  | 2
